The values below are quoted from earlier work in article PMC3991732.

The target of the data set is ubiquitin (Homo sapiens) (UniProt P0CG48). The experiment in a line: NMR.

Sequence of CD2AP SH3-C (Q9Y5K6 269-330): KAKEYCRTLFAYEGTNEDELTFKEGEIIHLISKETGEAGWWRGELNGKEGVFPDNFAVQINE

In general, Kd refers to the concentration at which binding is half-saturated. On to CD2AP SH3-C (from UniProt Q9Y5K6), for which the Kd was 132 µM.
